Laboratory results reported in the supplement of paper PMC7125110.
± gives the standard error. Fewer inactive variants are shown than the library holds.

B1: glmS ribozyme (parent)
chain: AUAAAAGCGCCAGAACUACAGAAAUGUAGUUGACGAGGAGGAGGUUUAUCGAAUUUUCGGCGGAUGCCUCCAAA

Columns and labels:
Details in all cases: with glucosamine-6-phosphate
[1] = variants of: B1; experiment: self-cleavage kobs at 40 uM GlcN6P; higher = faster cleavage; RNA array
How it was run: (§1)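 E. coli RNA polymerase transcribed barcoded ribozyme variants in situ on sequenced MiSeq chips, which were tracked via a hybridised Cy3 probe at 37 °C. Tiles were imaged over ~14 h after glucosamine-6-phosphate (40 μM to 10 mM) in HEPES/KCl/Mg(OAc)2 buffer was flowed in. Normalised per-tile medians were fit to one- or two-exponential decays for kobs, and kcat and KM came from weighted Michaelis–Menten fits.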

[2] = variants of: B1; experiment: self-cleavage kobs at 160 uM GlcN6P; higher = faster cleavage; RNA array
How it was run: as §1

[3] = variants of: B1; experiment: self-cleavage kobs at 640 uM GlcN6P; higher = faster cleavage; RNA array
How it was run: as §1

[4] = variants of: B1; experiment: self-cleavage kobs at 2500 uM GlcN6P; higher = faster cleavage; RNA array
How it was run: as §1

[5] = variants of: B1; experiment: self-cleavage kobs at 10000 uM GlcN6P; higher = faster cleavage; RNA array
How it was run: as §1

| Variant | self-cleavage kobs at 40 uM GlcN6P [1] | self-cleavage kobs at 160 uM GlcN6P [2] | self-cleavage kobs at 640 uM GlcN6P [3] | self-cleavage kobs at 2500 uM GlcN6P [4] | self-cleavage kobs at 10000 uM GlcN6P [5] |
| --- | --- | --- | --- | --- | --- |
| AUAAAAGCGCCAGAACUACAGAAAUGUAGCUGACGAGGAGGAGGUUUAACGAAUUUUCGGCGGAUGCCUCCAAA [U30C U49A] | < 1e-05 s⁻¹ | < 1e-05 s⁻¹ | < 1e-05 s⁻¹ |  |  |
| AUAAAAGCGCCAGAACUACAGAAAUGUAGGUGACGAGGGGGAGGUUUAUCGAAUUUUCGGCGGAUGCCUCCAAA [U30G A39G] | 0.000352 ± 8.4e-05 s⁻¹ | 0.000654 ± 0.00021 s⁻¹ | 0.00235 ± 0.00063 s⁻¹ | 0.00681 ± 0.0014 s⁻¹ | 0.0183 ± 0.007 s⁻¹ |
| AUAAAAGCGCCAGAACUACAGAAAUGUAGGUGUCGAGGAGGAGGUUUAUCGAAUUAUCGGCGUAUUCCUCCAAA [U30G A33U U56A G63U G66U] | < 1e-05 s⁻¹ |  |  |  | < 1e-05 s⁻¹ |
| AUAAAAGCGCCAGAACUACAGAAAUGUAGGUGACGAGGAGGAGGUUUAUCGAAUUUUCGGUGGAUGCCUCCAAA [U30G C61U] | < 1e-05 s⁻¹ |  | < 1e-05 s⁻¹ | < 1e-05 s⁻¹ |  |
| AUAAAAGCGCCAGAACUACAGAAAUGUAGGUGACGAGGAGGAGGUUUAUCGAAUUUUCGGGGGAUGCCUCCAAA [U30G C61G] | < 1e-05 s⁻¹ |  |  |  | < 1e-05 s⁻¹ |
| AUAAAAGCGCCAGAACUACAGAAAUGUAGGUGACGAGGAGGAGGUUUAUCGAAUUUUCGGAGGAUGCCUCCAAA [U30G C61A] | < 1e-05 s⁻¹ |  |  |  | < 1e-05 s⁻¹ |
| AUAAAAGCGCCAGAACUACAGAAAUGUAGGUGAAGAGGAGGAGGUUUAUCUAAUUUUCGGCGGUUGCCUCCAAA [U30G C34A G51U A64U] | < 1e-05 s⁻¹ |  |  |  |  |
| AUAAAAGCGCCAGAACUACAGAAAUGUAGGUGACGAGGAGGAGGUUUAUCGAAUUUUGGGCGGAUGCCUCCAAA [U30G C58G] | < 1e-05 s⁻¹ |  | 6.88e-05 ± 3e-05 s⁻¹ | 6.46e-05 ± 1.8e-05 s⁻¹ | 0.000122 ± 1.4e-05 s⁻¹ |
| AUAAAAGCGCCAGAACUACAGAAAUGUAGGUGACGAGGAGGAGGUUUAUCGCAUUUUCGGCGGAGGGCUUCAAA [U30G A52C U65G C67G C70U] | < 1e-05 s⁻¹ |  |  |  |  |
| AUAAAAGCGCCAGAACUACAGAAAUGUAGGUGACGAGGAGGAGGUUUAUCGAAUUUUCGGCGGUUGCCUCCAAA [U30G A64U] | < 1e-05 s⁻¹ | < 1e-05 s⁻¹ |  |  |  |
| AUAAAAGCGCCAGAACUACAGAAAUGUAGGUGACGAGGAGGGGGUUUAUCGAAUUUUCGGCGGAUGCCUCCAAA [U30G A42G] | 0.000448 ± 7.5e-05 s⁻¹ | 0.000561 ± 0.00012 s⁻¹ | 0.00469 ± 0.001 s⁻¹ | 0.0119 ± 0.0032 s⁻¹ | 0.0206 ± 0.0039 s⁻¹ |
| AUAAAAGCGCCAGAACUACAGAAAUGUAGGUGACGAGGAGGAGGUUUAUCGUAAUUUCGGCGGAUGCCUCCAAA [U30G A52U U54A] | < 1e-05 s⁻¹ |  |  |  | 4.6e-05 ± 1.6e-05 s⁻¹ |
| AUAAAAGCGCCAGAACUACAGAAAUGUAGGUGACGAGGGGGAGGUUUAUGGAAUUUUCGGCGGAUGCGUCCAAA [U30G A39G C50G C68G] | 0.00025 ± 6.5e-05 s⁻¹ |  |  |  | 0.000218 ± 4.7e-05 s⁻¹ |
| AUAAAAGCGCCAGAACUACAGAAAUGUAGGUGACGAGGAGGAGGUUUAUGGAAUUUUCGGCGGAUGCCUCCAAA [U30G C50G] | 0.000146 ± 6.1e-05 s⁻¹ | 7.58e-05 ± 2.1e-05 s⁻¹ | 7e-05 ± 2.2e-05 s⁻¹ | 0.000109 ± 2.3e-05 s⁻¹ |  |
